Patent US20250236670A1 (WISTAR INSTITUTE OF ANATOMY AND BIOLOGY, published 2025)

What was measured:
[1] = molecular target: T1, human Siglec-7 on cells (HEK293T-Siglec7 cells; human NK cells and other PBMC populations) (human, UniProt Q9Y286 19-467); assay: cell-based or functional assay
[2] = molecular target: T2, recombinant human Siglec-7 protein (human, UniProt Q9Y286 19-353, limits assumed); assay: SPR, 'Binding of DB7.2 to Siglec-7' [panel B]
T2 construct: Used in ELISA, Western blot and SPR

[3] = molecular target: T2, recombinant human Siglec-7 protein; assay: SPR, titration of anti-Siglec-7 on recombinant human Siglec-7 protein (FIG. 16B)
[4] = molecular target: T1, human Siglec-7 on cells …; assay: flow cytometry on HEK293T-Siglec-7 cells, GFP against Siglec-7 staining [panel B]
Text: For the non-conjugated primary antibodies, PE-secondary anti-human (H+L) (Invitrogen) and PE/AF647-secondary anti-human F(ab′)₂ (Jackson ImmunoResearch Laboratories Inc) were used. Live/Dead Violet viability kit (Invitrogen) was used to exclude dead cells from analysis. For Fluorescence cytometry staining on PBMCs, the following antibodies were used: CD69 PE-Cy5 (clone FN50), PD-1 BV421 (clone EH12.2H7), CCR7 APC-Cy7 (G043H7), CD19 BV785 (clone HIB19), CD27 BV650 (clone 0323), CD56 BV570 (clone HCD56), CD16 BV711 (clone 3G8), CD21 PE-Cy7 (clone BU32) and Siglec-7 (clone 6-434) from Biolegend; CD11c BUV395 (clone B-ly6), CXCR5 BV750 (clone RF8B2), CD3 BUV805 (UCHT1), CD45 AF700 (clone HI30), CD127 PE-CF594 (clone HIL-7RM21), CD25 BUV737 (clone 2A3), CD8 BUV496 (clone RPA-T8), HLA-DR BV605 (clone G46-6), CD38 BUV661 (clone HIT2), CD14 BV480 (clone MP9), CD45RA BUV563 (HI100), CD4 BB790 (clone SK3), CD15 FITC (clone HI98), CD103 BB700 (clone Ber-ACT8), CD161 APC (clone DX12) from BD Biosciences. […] Cells were washed with PBS and incubated with 0, 1 or 10 ug/ml of DB7.2 Siglec-7 antibody diluted in fluorescence-activated cell sorting (FACS) buffer for 20 minutes. […]

[5] = molecular target: T2, recombinant human Siglec-7 protein; assay: ELISA on recombinant human Siglec-7, dilution series (axis 'Dilutions', no concentration unit) [panel A]

T2 sequence (Q9Y286 19-353 limits assumed): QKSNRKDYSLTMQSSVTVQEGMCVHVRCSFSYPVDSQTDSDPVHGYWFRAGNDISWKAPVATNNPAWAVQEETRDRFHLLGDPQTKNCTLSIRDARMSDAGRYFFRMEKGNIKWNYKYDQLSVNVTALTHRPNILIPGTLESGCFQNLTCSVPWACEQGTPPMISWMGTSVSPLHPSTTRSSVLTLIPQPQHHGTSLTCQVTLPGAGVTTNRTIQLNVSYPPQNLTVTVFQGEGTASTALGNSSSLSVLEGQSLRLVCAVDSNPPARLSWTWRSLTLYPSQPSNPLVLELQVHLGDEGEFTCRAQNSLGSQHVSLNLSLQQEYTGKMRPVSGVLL
T1 sequence (Q9Y286 19-467): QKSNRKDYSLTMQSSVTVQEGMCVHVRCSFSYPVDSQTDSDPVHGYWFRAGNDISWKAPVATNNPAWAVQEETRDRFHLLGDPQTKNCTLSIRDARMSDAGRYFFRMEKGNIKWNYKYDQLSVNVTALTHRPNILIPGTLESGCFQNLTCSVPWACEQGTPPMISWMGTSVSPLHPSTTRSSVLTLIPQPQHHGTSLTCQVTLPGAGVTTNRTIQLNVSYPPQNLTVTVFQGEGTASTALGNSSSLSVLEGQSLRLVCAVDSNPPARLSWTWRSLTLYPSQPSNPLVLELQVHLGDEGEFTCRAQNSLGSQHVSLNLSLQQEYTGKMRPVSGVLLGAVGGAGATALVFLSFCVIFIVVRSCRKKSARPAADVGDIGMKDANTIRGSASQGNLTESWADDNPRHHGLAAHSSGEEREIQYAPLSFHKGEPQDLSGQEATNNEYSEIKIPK

B1: DB7.2 (DB-S7-2) Siglec-7 MAb (antibody, human IgG1, V domains shown)
VH: QVQLVESGGGVVQPGRSLRLSCAASGFTFRTDAMHWVRQAPGKGLEWVAVIWYDGSIKYHADSVKGRFTISRDNSKNTLYLEMNSLRAEDTAVYYCARDRSNSLDHWGQGILVSVSS
VL: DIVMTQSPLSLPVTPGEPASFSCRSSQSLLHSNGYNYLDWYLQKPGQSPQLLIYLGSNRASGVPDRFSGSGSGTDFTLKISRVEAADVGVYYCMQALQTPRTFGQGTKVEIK
notes: Expressed as human IgG1; The VH is the same as that of DB-S7-1 and DB-S7-7; also called DB7.2 Siglec-7 DMAb; DB7.2 anti-Siglec-7 antibody
EC50, killing of PEO4 cells in the presence of human PBMCs (xCELLigence) [1]: 68.9 nM
IC50, killing of OVISE cells in the presence of human PBMCs (xCELLigence, cell index vs dose at 72 h) [1]: 82.7 nM
koff [2]: 3.6e-05 s⁻¹
kon [2]: 830000 M⁻¹ s⁻¹
t1/2 [2]: 320 min
Kd [3]: 0.044 nM

B2: DB7.2_TM Mod (antibody, human IgG1, V domains shown)
VH: QVQLVESGGGVVQPGRSLRLSCAASGFTFRTDAMHWVRQAPGKGLEWVAVIWYDGSIKYHADSVKGRFTISRDNSKNTLYLEMNSLRAEDTAVYYCARDRSNSLDHWGQGILVSVSS
VL: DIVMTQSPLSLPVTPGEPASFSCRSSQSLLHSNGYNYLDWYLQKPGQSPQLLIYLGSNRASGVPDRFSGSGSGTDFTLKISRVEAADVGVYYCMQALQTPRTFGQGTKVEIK
IC50, killing of OVISE cells in the presence of human PBMCs (xCELLigence, cell index vs dose at 72 h) [1]: 192 nM

B3: DB7.1 (DB-S7-1) Siglec-7 MAb (antibody, human IgG1, V domains shown)
VH: QVQLVESGGGVVQPGRSLRLSCAASGFTFRTDAMHWVRQAPGKGLEWVAVIWYDGSIKYHADSVKGRFTISRDNSKNTLYLEMNSLRAEDTAVYYCARDRSNSLDHWGQGILVSVSS
VL: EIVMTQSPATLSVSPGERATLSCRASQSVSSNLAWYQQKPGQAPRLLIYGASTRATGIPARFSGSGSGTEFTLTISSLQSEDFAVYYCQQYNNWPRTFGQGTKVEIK
notes: Expressed as human IgG1 (HC + LC plasmids in pVax1, Expi293F cells)
binding result [4]: binds
binding result [5]: binds

B4: DB7.7 (DB-S7-7) Siglec-7 MAb (antibody, human IgG1, V domains shown)
VH: QVQLVESGGGVVQPGRSLRLSCAASGFTFRTDAMHWVRQAPGKGLEWVAVIWYDGSIKYHADSVKGRFTISRDNSKNTLYLEMNSLRAEDTAVYYCARDRSNSLDHWGQGILVSVSS
VL: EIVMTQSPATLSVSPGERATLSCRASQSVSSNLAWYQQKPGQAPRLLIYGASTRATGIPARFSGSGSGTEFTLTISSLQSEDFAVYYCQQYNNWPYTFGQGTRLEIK
notes: Expressed as human IgG1
binding result [4]: binds
binding result [5]: binds
